Publication PMC9882245

Target: NLuc-CLR:RAMP3 (N-terminally nanoluciferase-tagged CLR co-expressed with RAMP3; AM2 receptor) (human) (UniProt Q16602)
Experiment: FRET or BRET

NLuc-CLR:RAMP3 (N-terminally nanoluciferase-tagged CLR co-expressed with RAMP3; AM2 receptor) (human), sequence (Q16602 23-461, chain 1 of 2): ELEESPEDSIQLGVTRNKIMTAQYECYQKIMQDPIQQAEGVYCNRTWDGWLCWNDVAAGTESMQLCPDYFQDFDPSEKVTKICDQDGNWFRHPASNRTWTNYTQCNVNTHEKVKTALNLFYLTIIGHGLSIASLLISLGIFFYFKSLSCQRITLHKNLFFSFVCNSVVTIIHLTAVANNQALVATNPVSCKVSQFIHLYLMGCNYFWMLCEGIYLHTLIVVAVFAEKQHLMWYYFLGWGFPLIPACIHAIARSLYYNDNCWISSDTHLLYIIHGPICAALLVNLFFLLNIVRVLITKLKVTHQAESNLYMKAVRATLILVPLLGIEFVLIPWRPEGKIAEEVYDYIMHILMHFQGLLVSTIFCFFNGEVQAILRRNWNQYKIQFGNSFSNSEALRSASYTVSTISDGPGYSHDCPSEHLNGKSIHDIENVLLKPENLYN
NLuc-CLR:RAMP3 (N-terminally nanoluciferase-tagged CLR co-expressed with RAMP3; AM2 receptor) (human), sequence (O60896 24-148, chain 2 of 2, further chain): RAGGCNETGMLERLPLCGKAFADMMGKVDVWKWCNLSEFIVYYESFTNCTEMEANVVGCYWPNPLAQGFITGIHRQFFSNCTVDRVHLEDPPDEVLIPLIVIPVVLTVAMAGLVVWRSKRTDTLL

Row | Kd [nM] | dissociation half-life, fast component [min] | dissociation half-life, slow component [min] | half-life (t1/2) from the off-rate of the association kinetics analysis [min] | Substance
1 | 7 | 7 | 76 | 21 | AM2/IMD-TAMRA (adrenomedullin 2/intermedin labeled with TAMRA on a Lys substituted at D35) (peptide)
2 | 26 | 0.75 | 6.9 | 2.5 | AM-TAMRA (adrenomedullin labeled with TAMRA on a Lys substituted at N40) (peptide)
